assay: soluble on expression in E. coli; label from the status in PepcDB or PDB records

Soluble on expression in E. coli, not soluble:
MLTEQQRRELDWEKTDGLMPVIVQHAVSGEVLMLGYMNPEALDKTIESGKVTFFSRTKQRLWTKGETSGNFLNVVNIAPDCDNDTLLVLANPIGPTCHKGTSSCFGDTAHQWLFLYQLEQLLAERKSADPETSYTAKLYASGTKRIAQKVGEEGVETALAATVHDRFELTNEASDLMYHLLVLLQDQDLDLTTVIENLRKRHQ, MLTFLFELDKNLPQKDEPRYDAYSKGFIEGDVTICASDSVFFQKSCMKVAELGIYLGQWMEQVQHGQNVPMKYETADREEVILGFFYEEDHNQWIVFSSWQEFELQERIATATLIESVQRYLYELNKELRMIEYPVTFDQYLRGERMMQLSYKRPCDSKADTTPIEVYNGSEQVGVVRGYYKNTLMRALDFIPKIGSNIIYEIKDSKDNIRVIAKDVSRQRQRRILVMYKDNHDAEHEILVCDGKLLDANFLFTFTYKAEEYVVHKTLFGMGKLLRKGYVIADWNIRLEEDMYYIEMNVYDEDYMQDQYLLLGVFHAVLYG, MLTIARRFSGSSICRKQITVGSNNIQVIKNIQDREYEAIWKTIGSTRSDLKKDDIKKFKEAWGNDYHQTLTFLKDSDRLIASNSHVVFRPLKDSKGLENLVFRGNLWISPDVRGSEIMDITDKQSYDVGFSVGNNSMAYATKKTMDQYKNLTGSMDHLHKYYVSNYDFGDLCIPKDLDTSGIVVKNARDVPDTDILKYDAKVFKYERSKYVLGQIREDFGRVAYNEKGDVIGIGAISVYPSGECAITPMYADDIRIARTILKNILEEMTLDAEKYWRLQIRSHDQHTGSYGWIRPFLSTMTHRSEVCTLMCDHKEKGMDFSKVYSTFHADNCPI, MLTLSFATGTEPNKWFTRFEERTDHGGLRTLSDDDPLSLLVDATADLALVRLPDPRMDNDDTVHVVELYQESMGVALPKEHTLTLLDVVEPSDLDGEIINYITPPSLEVDVAAVRAQLQMVAANVGVVIAPRPLLKVLSGKLVEHREFSDPQRYGQARTRIALVWKKERDGEDIQDFVGIAKGRTVQSSRQSNAKKVSAREKTLAKQKRRKEAGKKPVRKGGRRKR, MLTQEQIDIIREGPDYFLESIWFRIGQLYGLSPGQIDHDSFEERKNDLFFLLGKLLDEGQIKIGNHKGNFISGPTPALVEMFRSSFPDSDEKAQAIWFITECPGGIVWVLKGQGEKGQDVYKWWLFKDEK, MLTTLSCCCNMPVVKVNCWNNMKVQIKSITQWGGVLLLSFSSCYVNANKLIKPNILFIAVDDLKPLIRDYGTAKVQTPNIDKLASQSTVFTRAYSQYPVCGPSRMSILTGLRPESNGIMNLKDKIRDVNPSVITLPQFFKNNGYETAATGKIFDPRNTTSRSEEEVLSWSIPYQRPKHGLKGKTRLAVESIDEPDEKFVDGGILKRGKKLLKQMANKNKPFFLAVGFKKPHLPFVAPKKYYDLYSRESFDLASYQSAPEDADTTYLFHKNQELRGYKPTPIKGGEIKPYPKGKLSSAHQKELLHGYFASVSFIDSLVGELLEELEKTGQAENTVIVFWGDHGFHLGDHGLWGKHTTMEQANHVPLIIKIPGSKANRYAKPVELLDVFPSLTEAAGLSIPNNLQGTSLVSLVTGKLKSIDKVAISQYKRKGAYGYSMRTEQYRYTQWVTPSGKVVYRDLYDLINDPLETKNIINTPEGKLLEVELNKQLHTNSAGLKRLKLEHHHHHH, MLVPGRVYLFRIPEGKEIIEFLREFAEKENIKVGIISAIGTLRNPVIGYFMEEEKKYKEISLTGTYELLSLSGNISLKDGKPFVHAHVVLGDSEGRAFGGHLVRGEVFVAEVFVQELEGETLERKPTEHGLALWLEHHHHHH, MLYDKWDVIMKKVQDIVEAIPKNGTLSIVQRDLESNGDKFALKNPPQSFNLEHHHHHH

Soluble on expression in E. coli, soluble:
MLVLPKGVRHMPAYLSRAIQDALVEDVRSIVQQAPLFVPAMPRTGKEMSVRMTNCGPLGWVTDKERGYRYQPTHPLTGEPWPPIPESLLDLWRQVSGYPNPPEACLINFYTADAKMGLHQDRDEADFSAPVVSVSLGDDCLFRVGQTTRDGATKSFRLKSGDVVVLGGEGRLAFHGVDRIYPSTSALLKNGGRINLTLRRVTKPHEECLTSRSLEHHHHHH
